Assays:
[1] = target: T1, Mcm3 (Saccharomyces cerevisiae, UniProt P24279 1-971); experiment: cryo-EM structure; SH and DH on nucleosome-flanked ARS1 (15 nM) loaded by Orc6-4A ORC (40 nM) pre-phosphorylated by CDK, Cdc6 (40 nM), MCM–Cdt1 (80 nM), 2.2 mM ATP, 30 °C, 30 min; settings: both partners purified
T1 construct: Mcm3 of S. cerevisiae; Subunit of m5, for the subunit pairs of the SH structure; source: subunit of purified MCM–Cdt1 (previously described methods)

[2] = target: T2, Mcm4 (Saccharomyces cerevisiae, UniProt P30665 1-933); experiment: as above; settings: both partners purified
T2 construct: Mcm4 of S. cerevisiae; Subunit of m5, for the subunit pairs of the SH structure; source: subunit of purified MCM–Cdt1 (previously described methods)
T2 sequence: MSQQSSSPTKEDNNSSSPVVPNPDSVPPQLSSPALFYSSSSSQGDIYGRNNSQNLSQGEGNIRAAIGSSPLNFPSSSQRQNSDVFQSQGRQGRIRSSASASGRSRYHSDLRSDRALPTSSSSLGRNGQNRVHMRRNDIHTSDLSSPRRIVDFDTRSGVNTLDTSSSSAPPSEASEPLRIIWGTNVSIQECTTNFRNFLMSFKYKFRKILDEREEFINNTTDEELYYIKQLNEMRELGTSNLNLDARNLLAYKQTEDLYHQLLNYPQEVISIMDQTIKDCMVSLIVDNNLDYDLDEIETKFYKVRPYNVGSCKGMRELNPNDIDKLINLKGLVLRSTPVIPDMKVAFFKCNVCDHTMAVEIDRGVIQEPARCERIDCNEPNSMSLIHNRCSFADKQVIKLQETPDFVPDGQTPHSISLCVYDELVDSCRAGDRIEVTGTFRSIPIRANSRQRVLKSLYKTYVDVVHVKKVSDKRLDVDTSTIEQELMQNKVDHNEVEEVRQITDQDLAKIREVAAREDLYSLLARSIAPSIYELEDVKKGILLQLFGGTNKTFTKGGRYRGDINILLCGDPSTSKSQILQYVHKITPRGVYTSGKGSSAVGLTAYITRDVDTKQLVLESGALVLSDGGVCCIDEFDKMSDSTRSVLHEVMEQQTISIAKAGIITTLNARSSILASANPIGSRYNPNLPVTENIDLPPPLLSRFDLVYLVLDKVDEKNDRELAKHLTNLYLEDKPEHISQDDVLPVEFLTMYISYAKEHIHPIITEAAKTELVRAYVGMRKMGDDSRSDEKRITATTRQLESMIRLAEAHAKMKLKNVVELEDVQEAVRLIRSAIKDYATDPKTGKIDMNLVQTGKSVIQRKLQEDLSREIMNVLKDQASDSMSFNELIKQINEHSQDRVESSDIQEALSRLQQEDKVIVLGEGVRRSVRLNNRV

T1 sequence (P24279 whole entry): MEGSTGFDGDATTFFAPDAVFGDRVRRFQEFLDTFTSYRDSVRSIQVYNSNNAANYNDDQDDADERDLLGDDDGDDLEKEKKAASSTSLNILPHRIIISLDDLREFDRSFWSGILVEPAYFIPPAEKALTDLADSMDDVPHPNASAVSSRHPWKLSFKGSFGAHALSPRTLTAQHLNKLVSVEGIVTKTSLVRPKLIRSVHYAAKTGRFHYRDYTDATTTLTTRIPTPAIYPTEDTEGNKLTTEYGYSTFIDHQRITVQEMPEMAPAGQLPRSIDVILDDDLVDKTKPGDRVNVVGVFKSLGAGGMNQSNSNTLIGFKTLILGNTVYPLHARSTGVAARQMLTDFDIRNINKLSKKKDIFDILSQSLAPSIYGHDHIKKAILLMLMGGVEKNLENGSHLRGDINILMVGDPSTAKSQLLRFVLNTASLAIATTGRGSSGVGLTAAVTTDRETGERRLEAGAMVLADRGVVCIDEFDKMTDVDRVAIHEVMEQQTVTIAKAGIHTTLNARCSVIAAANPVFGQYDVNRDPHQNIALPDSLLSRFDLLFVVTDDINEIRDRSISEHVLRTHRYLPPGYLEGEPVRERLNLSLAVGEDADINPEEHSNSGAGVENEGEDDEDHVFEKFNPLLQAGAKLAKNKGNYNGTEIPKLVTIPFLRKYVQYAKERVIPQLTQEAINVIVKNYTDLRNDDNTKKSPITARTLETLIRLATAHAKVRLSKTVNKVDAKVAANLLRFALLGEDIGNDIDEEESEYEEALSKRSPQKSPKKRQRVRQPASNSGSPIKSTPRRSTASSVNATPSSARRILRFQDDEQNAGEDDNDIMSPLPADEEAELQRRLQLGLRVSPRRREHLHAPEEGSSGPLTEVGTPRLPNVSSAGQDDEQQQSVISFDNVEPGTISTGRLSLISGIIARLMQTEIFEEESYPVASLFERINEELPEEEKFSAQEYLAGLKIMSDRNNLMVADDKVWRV

B1: Mcm7 (natural protein, Saccharomyces cerevisiae)
chain: MSAALPSIQLPVDYNNLFNEITDFLVTFKQDTLSSDATRNENEDENLDAENIEQHLLEKGPKYMAMLQKVANRELNSVIIDLDDILQYQNEKFLQGTQADDLVSAIQQNANHFTELFCRAIDNNMPLPTKEIDYKDDVLDVILNQRRLRNERMLSDRTNEIRSENLMDTTMDPPSSMNDALREVVEDETELFPPNLTRRYFLYFKPLSQNCARRYRKKAISSKPLSVRQIKGDFLGQLITVRGIITRVSDVKPAVEVIAYTCDQCGYEVFQEVNSRTFTPLSECTSEECSQNQTKGQLFMSTRASKFSAFQECKIQELSQQVPVGHIPRSLNIHVNGTLVRSLSPGDIVDVTGIFLPAPYTGFKALKAGLLTETYLEAQFVRQHKKKFASFSLTSDVEERVMELITSGDVYNRLAKSIAPEIYGNLDVKKALLLLLVGGVDKRVGDGMKIRGDINVCLMGDPGVAKSQLLKAICKISPRGVYTTGKGSSGVGLTAAVMKDPVTDEMILEGGALVLADNGICCIDEFDKMDESDRTAIHEVMEQQTISISKAGINTTLNARTSILAAANPLYGRYNPRLSPLDNINLPAALLSRFDILFLMLDIPSRDDDEKLAEHVTYVHMHNKQPDLDFTPVEPSKMREYIAYAKTKRPVMSEAVNDYVVQAYIRLRQDSKREMDSKFSFGQATPRTLLGIIRLSQALAKLRLADMVDIDDVEEALRLVRVSKESLYQETNKSKEDESPTTKIFTIIKKMLQETGKNTLSYENIVKTVRLRGFTMLQLSNCIQEYSYLNVWHLINEGNTLKFVDDGTMDTDQEDSLVSTPKLAPQTTASANVSAQDSDIDLQDA
notes: Mcm7 of S. cerevisiae; Subunit of m5, for the subunit pairs of the SH structure; source: subunit of purified MCM–Cdt1 (previously described methods)
Which results are given for B1?
binding result [1]: binds; binding result [2]: binds
